Experimental data published in publication PMC7139925, “Tuning the Polymorphism of the Anti-VEGF G-rich V7t1 Aptamer by Covalent Dimeric Constructs”.

Biological target: VEGF165 (UniProt P15692-4 27-191)
Assay: EMSA; annealed; HEPES/Na+; 1:1.3; almost fully bound; 25 mM HEPES, 150 mM NaCl, pH 7.4; 30 pmol oligo + 40 pmol protein in 9 uL, 30 min at 4 C; 7% native PAGE in TAE 1X pH 7.8 at r.t.
Details: protein: recombinant; chain copies: 2; G4; 2 copies of strand covalently linked 3'-3'

Sequence of VEGF165 (P15692 other isoform, or with tags, fused parts or gaps): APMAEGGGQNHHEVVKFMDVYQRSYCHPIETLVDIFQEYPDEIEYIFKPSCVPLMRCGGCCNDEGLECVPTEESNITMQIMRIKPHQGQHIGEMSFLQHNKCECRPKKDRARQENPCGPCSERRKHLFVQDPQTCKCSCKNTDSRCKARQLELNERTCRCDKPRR

B1: bisV7t1TEG2D (structured_DNA)
DNA: TGTGGGGGTGGACGGGCCGGGTAGA
modifications: two V7t1 copies joined 3' to 3' by TEG/symmetric doubler linker (C25H53N2O24P5), inverted polarity
B1: binds.
